The source of these data is patent publication US20200317768A1 (published 2020).

Substitutions are numbered along the chain they refer to. Names may count otherwise.

What all share (assay): SPR (BIACORE), antibody captured, FcγR as analyte, 25°C
(In general: SPR reads the build-up and loss of mass on a sensor chip optically.)

For assay [1], the target named is T1, human FcγRIIaR extracellular domain, His-tagged (human, UniProt P12318 34-217).
T1 construct: also called human FcgRIIaR; FcγRIIa (type R); not shown: His-tag added to the C-terminus
T1 chain: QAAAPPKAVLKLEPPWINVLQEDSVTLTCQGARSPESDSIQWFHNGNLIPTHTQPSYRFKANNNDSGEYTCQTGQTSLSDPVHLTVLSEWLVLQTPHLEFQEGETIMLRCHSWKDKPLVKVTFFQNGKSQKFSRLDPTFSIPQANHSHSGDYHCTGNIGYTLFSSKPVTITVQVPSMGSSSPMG
As for the experimental part: (§1) The kinetic analysis of interactions between these antibodies and FcγR was carried out using BIACORE® T200 or BIACORE® 4000 (GE Healthcare). HBS-EP+ (GE Healthcare) was used as the running buffer, and the measurement temperature was set to 25° C. A chip produced by immobilizing Protein A. Protein A/G or mouse anti-human IgG kappa light chain (BD Biosciences) onto a Series S Sensor Chip CM4 or CM5 (GE Healthcare) by the amine-coupling method was used. […] After the measurement, the antibody captured on the chip was washed off by allowing reaction with 10 mM glycine-HCl, pH1.5 and 25 mM NaOH so that the chip was regenerated and used repeatedly. The sensorgrams obtained as measurement results were analyzed by the 1:1 Langmuir binding model using the BIACORE® Evaluation Software to calculate the binding rate constant ka (L/mol/s) and dissociation rate constant kd (l/s), and the dissociation constant KD (mol/L) was calculated from these values. […] Regarding such interactions, KD values were calculated using the following 1:1 binding model described in BIACORE® T100 Software Handbook BR1006-48 Edition AE.
(§2) The behavior of interacting molecules according to the 1:1 binding model on BIACORE® can be described by Equation 1: Req=C·R max/(KD+C)+RI, wherein, Req is a plot of steady-state binding levels to analyte concentration. C is concentration, RI is bulk refractive index contribution in the sample, and Rmax is analyte binding capacity of the surface. When this equation is rearranged, KD can be expressed as Equation 2: KD=C·Rmax/(Req−RI)−C. KD can be calculated by substituting the values of Rmax, RI, and C into Equation 1 or Equation 2. From the current measurement conditions, RI=0, C=2 μmol/L can be used.

Assay [2] addresses T2, cynomolgus monkey FcγRIIa2 extracellular domain, His-tagged (cynomolgus monkey).
T2 construct: also called cyno FcgRIIa2; cynoFcγRIIa2; not shown: His-tag added to the C-terminus
T2 chain: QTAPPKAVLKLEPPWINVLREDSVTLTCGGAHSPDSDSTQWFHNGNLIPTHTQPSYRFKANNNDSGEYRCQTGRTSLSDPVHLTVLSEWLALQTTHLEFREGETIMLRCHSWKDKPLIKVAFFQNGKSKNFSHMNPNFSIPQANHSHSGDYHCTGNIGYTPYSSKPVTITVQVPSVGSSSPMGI
The procedure: as §1, §2

Assay [3] addresses T3, cynomolgus monkey FcγRIIa1 extracellular domain, His-tagged (cynomolgus monkey).
T3 construct: also called cyno FcgRIIa1; cynoFcγRIIa1; not shown: His-tag added to the C-terminus
T3 chain: T2 chain with T95P, A121T, K127I, S128A, N130K, N135D, Q142R
As for the experimental part: as §1, §2

The target of assay [4] is T4, human FcγRIIIaV extracellular domain, His-tagged (human, UniProt P08637 17-208).
T4 construct: also called human FcgRIIIaV; not shown: His-tag added to the C-terminus
T4 sequence (P08637 17-208 F176V): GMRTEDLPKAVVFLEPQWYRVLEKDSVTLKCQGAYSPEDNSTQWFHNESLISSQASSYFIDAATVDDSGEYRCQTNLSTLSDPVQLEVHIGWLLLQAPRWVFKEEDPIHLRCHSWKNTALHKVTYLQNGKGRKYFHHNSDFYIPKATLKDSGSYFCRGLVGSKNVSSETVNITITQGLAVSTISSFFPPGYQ
The procedure: as §1, §2

Assay [5] concerns the target T5, human FcγRIIaH extracellular domain, His-tagged (human, UniProt P12318 34-217).
T5 construct: also called human FcgRIIaH; FcγRIIa (type H); not shown: His-tag added to the C-terminus
T5 sequence: T1 chain with R134H
The procedure:
as §1, §2

In assay [6] the target is T6, cynomolgus monkey FcγRIIb extracellular domain, His-tagged (cynomolgus monkey).
T6 construct: also called cyno FcgRIIb; cynoFcγRIIb; not shown: His-tag added to the C-terminus
T6 chain: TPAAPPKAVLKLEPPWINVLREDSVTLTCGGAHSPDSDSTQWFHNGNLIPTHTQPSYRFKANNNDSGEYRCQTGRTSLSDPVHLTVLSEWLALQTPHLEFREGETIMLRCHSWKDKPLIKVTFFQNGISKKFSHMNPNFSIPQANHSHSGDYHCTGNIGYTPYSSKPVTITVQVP
The procedure: as §1, §2

In assay [7] the target is T7, cynomolgus monkey FcγRIIa3 extracellular domain, His-tagged (cynomolgus monkey).
T7 construct: also called cyno FcgRIIa3; cynoFcγRIIa3; not shown: His-tag added to the C-terminus
T7 chain: T2 chain with K127I, N130K, H133P, Q142R
The procedure: as §1, §2

B1: MS1032LO06-SG1 (M103205H795-SG1/M103202L889-SK1) (antibody, human IgG1, kappa)
heavy: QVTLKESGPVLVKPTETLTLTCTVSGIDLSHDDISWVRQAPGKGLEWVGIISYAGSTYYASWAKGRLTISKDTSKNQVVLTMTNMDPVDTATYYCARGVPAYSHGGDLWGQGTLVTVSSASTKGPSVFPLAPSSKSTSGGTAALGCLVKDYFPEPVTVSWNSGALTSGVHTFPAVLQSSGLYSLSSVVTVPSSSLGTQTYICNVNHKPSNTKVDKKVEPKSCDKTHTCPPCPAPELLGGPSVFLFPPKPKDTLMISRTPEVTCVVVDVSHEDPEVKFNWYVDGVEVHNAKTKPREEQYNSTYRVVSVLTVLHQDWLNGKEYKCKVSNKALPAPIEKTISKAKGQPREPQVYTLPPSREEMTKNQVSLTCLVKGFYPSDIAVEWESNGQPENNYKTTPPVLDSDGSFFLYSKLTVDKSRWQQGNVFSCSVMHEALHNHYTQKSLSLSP
light: DIVMTQSPATLSLSPGERATLSCTSSQSVYHANWLSWFQQKPGQPPKLLIYWASTLAYGVPSRFSGSGSGTDFTLTISSLQPEDAATYYCAGGYGGGRYAFGQGTKVEIKRTVAAPSVFIFPPSDEQLKSGTASVVCLLNNFYPREAKVQWKVDNALQSGNSQESVTEQDSKDSTYSLSSTLTLSKADYEKHKVYACEVTHQGLSSPVTKSFNRGEC
notes: Anti-latent myostatin antibody; Parent of the Fc variants; copies: 2 + 2
Consider B1, for which the Kd in assay [1] came out at 1100 nM; in assay [2], 5.1 µM; in assay [3] it was 3.2 µM; in assay [4], 0.81 µM; in assay [5], 690 nM; in assay [6], 1800 nM. The molecule also had a Kd in assay [7] of 17 µM.

B2: M103205H795-MY265/M103202L889-SK1 (antibody, human IgG1, kappa)
heavy: QVTLKESGPVLVKPTETLTLTCTVSGIDLSHDDISWVRQAPGKGLEWVGIISYAGSTYYASWAKGRLTISKDTSKNQVVLTMTNMDPVDTATYYCARGVPAYSHGGDLWGQGTLVTVSSASTKGPSVFPLAPSSKSTSGGTAALGCLVKDYFPEPVTVSWNSGALTSGVHTFPAVLQSSGLYSLSSVVTVPSSSLGTQTYICNVNHKPSNTKVDKKVEPKSCDKTHTCPPCPAPELLTGPSVFLFPPKPKDTLMISRTPEVTCVVVDVSDEDPEVKFNWYVDGVEVHNAKTKPREEQYNSTYRVVSVLTVLHQDWLNGKEYKCKVSNKALPKPIEKTISKAKGQPREPQVYTLPPSREEMTKNQVSLTCLVKGFYPSDIAVEWESNGQPENNYKTTPPVLDSDGSFFLYSKLTVDKSRWQQGNVFSCSVMHEALHNHYTQKSLSLSP
light: B1 light
notes: copies: 2 + 2
Turning to B2, the dissociation constant (Kd) in assay [1] is 440 nM; in assay [2], 1.9 µM; in assay [3] it was 2.2 µM; in assay [4] it was 54 µM; in assay [5], 210 nM; in assay [6], 590 nM. This molecule also registered a Kd in assay [7] of 4.8 µM.

B3: M103205H795-MY264/M103202L889-SK1 (antibody, human IgG1, kappa)
heavy: B2 heavy with T238L
light: B1 light
notes: copies: 2 + 2
On to B3, for which the equilibrium dissociation constant (Kd) in assay [1] is 2300 nM; in assay [2] it was 5.5 µM; in assay [3], 5.6 µM; in assay [4] it was 64 µM; in assay [5], 1500 nM; in assay [6] it was 2800 nM. Further, in assay [7], the Kd was determined as 16 µM.

B4: M103205H795-MY260/M103202L889-SK1 (antibody, human IgG1, kappa)
heavy: B2 heavy with T238M
light: B1 light
notes: copies: 2 + 2
For the molecule B4, the Kd is 1800 nM in assay [1]; 3.7 µM in assay [2]; 4.5 µM in assay [3]; 3 µM in assay [4]; 910 nM in assay [5]; 1600 nM in assay [6]. The molecule also gave a dissociation constant (Kd) in assay [7] of 14 µM.

B5: M103205H795-MY261/M103202L889-SK1 (antibody, human IgG1, kappa)
heavy: B2 heavy with T238H
light: B1 light
notes: copies: 2 + 2
B5: the dissociation constant Kd was determined as 1100 nM in assay [1]; 4 µM in assay [2]; 3.7 µM in assay [3]; 11 µM in assay [4]; 240 nM in assay [5]; 1500 nM in assay [6]. Also, in assay [7], the dissociation constant Kd is 6.5 µM.

B6: M103205H795-MY262/M103202L889-SK1 (antibody, human IgG1, kappa)
heavy: B2 heavy with T238V
light: B1 light
notes: copies: 2 + 2
Consider B6, for which the Kd in assay [1] turned out to be 710 nM; in assay [2], 1.7 µM; in assay [3], 1.9 µM; in assay [4], 5 µM; in assay [5], 140 nM; in assay [6], 560 nM. This molecule returned a dissociation constant (Kd) in assay [7] of 8 µM.

B7: M103205H795-MY263/M103202L889-SK1 (antibody, human IgG1, kappa)
heavy: B2 heavy with T238Q
light: B1 light
notes: copies: 2 + 2
For the molecule B7, the equilibrium dissociation constant (Kd) worked out at 710 nM in assay [1]; 3 µM in assay [2]; 3.2 µM in assay [3]; 2.3 µM in assay [4]; 320 nM in assay [5]; 1000 nM in assay [6]. In addition, in assay [7], the dissociation constant (Kd) is 7.3 µM.

B8: M103205H795-MY267/M103202L889-SK1 (antibody, human IgG1, kappa)
heavy: B2 heavy with T238I
light: B1 light
notes: copies: 2 + 2
Take B8: the equilibrium dissociation constant (Kd) in assay [1] was determined as 720 nM; in assay [2], 20 µM; in assay [3], 24 µM; in assay [4] it was 15 µM; in assay [5], 200 nM; in assay [6], 840 nM. Also, the dissociation constant (Kd) in assay [7] is 7.3 µM.

B9: M103205H795-MY201/M103202L889-SK1 (antibody, human IgG1, kappa)
heavy: B2 heavy with T238N
light: B1 light
notes: Fc variant G236N/H268D/A330K (EU numbering) of SG1; also called MS1032LO06-MY201; copies: 2 + 2
As to B9, the Kd in assay [1] is 1900 nM; in assay [2], 1.4 µM; in assay [3] it was 1.4 µM; in assay [4], 24 µM; in assay [5] it was 910 nM; in assay [6] it was 430 nM. For the same molecule, in assay [7], the Kd was determined as 3.9 µM.

For orientation: Kd means the free concentration of one partner at which half of the binding sites on the other are occupied at equilibrium, for simple one-to-one binding.
